Earlier results as cited in PMC5319824.
“And” between values parts separate entries of the source, which are not always exact repeats. Identical values can stand only once. Like-named read-outs stand apart in the source and are kept apart here.

How the values were obtained:
[1] = target: FtsZ (Escherichia coli) (UniProt P0A9A6)
[2] = target: FtsZ (Escherichia coli) (UniProt P0A9A6); remark: listed apart in the source
[3] = target: FtsZ (Escherichia coli) (UniProt P0A9A6); remark: listed apart in the source

Sequence of FtsZ (Escherichia coli) (P0A9A6 whole entry): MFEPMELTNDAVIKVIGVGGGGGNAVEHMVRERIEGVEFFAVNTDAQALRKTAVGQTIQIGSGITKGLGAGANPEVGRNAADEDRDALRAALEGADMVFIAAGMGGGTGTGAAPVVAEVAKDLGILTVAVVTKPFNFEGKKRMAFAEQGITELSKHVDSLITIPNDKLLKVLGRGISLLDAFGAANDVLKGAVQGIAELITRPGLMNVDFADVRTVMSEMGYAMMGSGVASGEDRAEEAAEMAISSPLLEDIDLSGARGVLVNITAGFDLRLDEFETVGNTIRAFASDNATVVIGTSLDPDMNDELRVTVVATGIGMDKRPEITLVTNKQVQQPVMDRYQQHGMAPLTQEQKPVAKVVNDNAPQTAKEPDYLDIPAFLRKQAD
Sequence of FtsA (P0ABH0 whole entry): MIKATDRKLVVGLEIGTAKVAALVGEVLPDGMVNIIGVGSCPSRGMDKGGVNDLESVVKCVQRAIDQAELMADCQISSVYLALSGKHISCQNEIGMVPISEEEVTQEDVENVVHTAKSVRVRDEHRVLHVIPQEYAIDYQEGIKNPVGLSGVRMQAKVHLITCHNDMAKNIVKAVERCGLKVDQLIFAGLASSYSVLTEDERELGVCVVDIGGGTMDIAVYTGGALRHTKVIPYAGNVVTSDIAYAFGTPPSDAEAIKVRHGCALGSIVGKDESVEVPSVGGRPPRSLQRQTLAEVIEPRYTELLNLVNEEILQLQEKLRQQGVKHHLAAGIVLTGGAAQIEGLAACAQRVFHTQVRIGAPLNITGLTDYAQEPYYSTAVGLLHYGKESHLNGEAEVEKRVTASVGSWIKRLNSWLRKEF

| Kd [1] [µM] | Substance | Kd [2] | Kd [3] [µM] |
| --- | --- | --- | --- |
| > 40 | FtsA (from UniProt P0ABH0) | – | – |
| – | ZipA (from UniProt P77173) | 30 µM and 140 µM | 0.4 |
